Laboratory results reported in PMC12637829 (Research Square, 2025).

Target: the molecule itself
Test: cryo-EM structure; amyloid fibrils polymerised from monomer at 4°C with seeds (5% mol/mol) in 5 mM KPi, 150 mM NaCl, pH 7.4, without agitation; third-generation (G3) fibrils

B1: Sup35NM S17R (domain or fragment, yeast, UniProt P05453 1-253, looked up)
chain: MSDSNQGNNQQNYQQYRQNGNQQQGNNRYQGYQAYNAQAQPAGGYYQNYQGYSGYQQGGYQQYNPDAGYQQQYNPQGGYQQYNPQGGYQQQFNPQGGRGNYKNFNYNNNLQGYQAGFQPQSQGMSLNDFQKQQKQAAPKPKKTLKLVSSSGIKLANATKKVGTKPAESDKKEEEKSAETKEPTKEPTKVEEPVKKEEKPVQTEEKTEEKSELPKVEDLKISESTHNTNNANVTSADALIKEQEEEVDDEVVND
notes: Sup35, yeast translation termination factor; NM domain = N-terminal prion domain (N or PrD) plus the polar M region (M124-D253), with S17R; In the fibril, many copies are stacked along the axis; also called S17R mutant; S17R4 (fibrils formed at 4°C); not shown: 7x histidine, C-terminal, kept
- binding result: binds
